“And” between values parts separate entries of the source, which are not always exact repeats. Equal entries are not always repeated.
Tests used:
[1] = target: T1, Human CLEC12A-His (recombinant, K244 WT) (human, UniProt Q5QGZ9 65-265); assay: SPR, two-state fit (ka1); control sample
T1 construct: Made in house (Dragonfly Tx); also called hCLEC12A; hCLEC12A-His; not shown: His tag
T1 sequence: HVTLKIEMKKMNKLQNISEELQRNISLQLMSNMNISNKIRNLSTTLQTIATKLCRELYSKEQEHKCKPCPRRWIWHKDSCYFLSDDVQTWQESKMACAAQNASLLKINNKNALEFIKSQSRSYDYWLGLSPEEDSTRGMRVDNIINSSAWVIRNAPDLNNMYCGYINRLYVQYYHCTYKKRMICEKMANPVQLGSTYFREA

[2] = target: T1, Human CLEC12A-His (recombinant, K244 WT); assay: SPR, two-state fit (ka1); after pH 5.0, 40C, 2 wks
Protocol: Briefly, human Fc specific antibodies were covalently immobilized at a density ˜8000-10000 resonance units (RU) on carboxy methyl dextran matrix of a CM5 biosensor chip via amine-coupling chemistry to create an anti-hFc IgG chip. […] Association was monitored for 300 seconds and dissociation was monitored for 600 seconds. Surfaces were regenerated between cycles with three pulses of 10 mM glycine-HCl, pH 1.7 injected for 20 seconds at 100 μl/min. HBS-EP+ (1×) with 0.1 mg/ml BSA was used as running buffer throughout the experiment. Experiments were performed at physiological temperature of 37° C. To obtain kinetic rate constants and overall binding affinity, double-referenced data were fit to a two-state kinetic model using Biacore 8K Insight Evaluation software (Cytiva).

Human CD16b = target: T2, Human CD16b (human, UniProt O75015 17-200, limits assumed, biotinylated); assay: SPR, steady state fit
T2 construct: Bought recombinant receptor; also called hFcγRIIIb

Human FcRn = target: T3, Human FcRn (human, UniProt P55899 24-297; P61769 21-119); assay: SPR, steady state fit
T3 construct: Bought recombinant receptor; also called hFcRn

Cynomolgus FcRn = target: T4, Cynomolgus FcRn (cynomolgus monkey, UniProt Q8SPV9 24-297; Q8SPW0 21-119); assay: SPR, steady state fit
T4 construct: Bought recombinant receptor; also called cFcRn; Cyno FcRn

Human CD16a V158 [3] = target: T5, Human CD16a V158 (human, UniProt P08637 17-208, biotinylated); assay: SPR, summary of FcγR affinities
T5 construct: Bought recombinant receptor; also called hCD16a (V158); hFcγRIIIa V158

Human CLEC12A-His = target: T6, Human CLEC12A-His (human, UniProt Q5QGZ9 65-265); assay: SPR; control sample (HST pH 6.0 study)
T6 construct: Recombinant soluble protein made in house; also called hCLEC12A-His; hCLEC12A; not shown: His tag
T6 sequence: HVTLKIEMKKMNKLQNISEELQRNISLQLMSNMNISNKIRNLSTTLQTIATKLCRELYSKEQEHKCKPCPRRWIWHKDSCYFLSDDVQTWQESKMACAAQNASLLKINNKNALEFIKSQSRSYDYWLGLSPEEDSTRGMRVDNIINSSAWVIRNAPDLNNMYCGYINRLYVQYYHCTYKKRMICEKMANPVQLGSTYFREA

mFc-hNKG2D = target: T7, mFc-hNKG2D (human, UniProt P26718 73-216); assay: SPR; control sample (HST pH 6.0 study)
T7 construct: extracellular domain; Recombinant mFc-tagged NKG2D dimer, made in house; also called human NKG2D; not shown: mouse Fc tag
T7 sequence (looked up): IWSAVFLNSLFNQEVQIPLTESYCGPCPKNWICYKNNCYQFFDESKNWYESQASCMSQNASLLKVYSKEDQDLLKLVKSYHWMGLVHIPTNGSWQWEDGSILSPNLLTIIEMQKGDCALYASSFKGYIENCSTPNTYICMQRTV

Human CD16a V158 [4] = target: T5, Human CD16a V158; assay: SPR; control sample (HST pH 6.0 study)
recombinant human CD32b = target: T8, recombinant human CD32b (human, UniProt P31994 46-217, limits assumed, biotinylated); assay: SPR 25C, steady state, average
T8 construct: also called FcγRIIb
T8 sequence (looked up): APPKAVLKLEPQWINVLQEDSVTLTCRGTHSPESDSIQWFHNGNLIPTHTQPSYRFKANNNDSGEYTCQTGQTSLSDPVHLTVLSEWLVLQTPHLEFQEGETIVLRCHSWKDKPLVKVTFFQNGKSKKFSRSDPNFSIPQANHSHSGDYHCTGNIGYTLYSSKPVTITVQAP

T5 sequence (P08637 17-208 F176V limits assumed): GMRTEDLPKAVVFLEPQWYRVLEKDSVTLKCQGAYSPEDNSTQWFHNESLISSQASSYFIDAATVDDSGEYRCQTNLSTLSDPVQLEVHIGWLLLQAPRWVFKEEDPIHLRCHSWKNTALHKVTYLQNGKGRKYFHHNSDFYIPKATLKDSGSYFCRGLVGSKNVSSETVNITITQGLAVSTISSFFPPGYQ
T4 sequence (Q8SPV9 24-297 limits assumed, chain 1 of 2): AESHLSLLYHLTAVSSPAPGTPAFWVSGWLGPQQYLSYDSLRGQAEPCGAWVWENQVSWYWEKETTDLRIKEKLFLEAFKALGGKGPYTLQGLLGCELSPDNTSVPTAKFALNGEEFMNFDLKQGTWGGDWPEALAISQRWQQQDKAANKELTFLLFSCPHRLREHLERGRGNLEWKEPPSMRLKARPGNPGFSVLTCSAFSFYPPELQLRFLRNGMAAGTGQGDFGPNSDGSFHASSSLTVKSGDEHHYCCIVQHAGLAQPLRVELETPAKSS
T4 sequence (Q8SPW0 21-119 limits assumed, chain 2 of 2): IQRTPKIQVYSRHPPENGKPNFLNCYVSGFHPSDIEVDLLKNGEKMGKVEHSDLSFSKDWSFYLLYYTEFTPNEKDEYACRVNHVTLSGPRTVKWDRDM
T2 sequence (O75015 17-200 limits assumed): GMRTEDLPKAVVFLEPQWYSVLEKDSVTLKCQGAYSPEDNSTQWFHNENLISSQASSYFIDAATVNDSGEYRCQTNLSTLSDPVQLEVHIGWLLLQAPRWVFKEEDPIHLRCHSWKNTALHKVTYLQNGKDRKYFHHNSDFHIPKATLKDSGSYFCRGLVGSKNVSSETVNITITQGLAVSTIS
T3 sequence (P55899 24-297 limits assumed, chain 1 of 2): as the sequence (Q8SPV9 24-297 limits assumed, chain 1 of 2) above, with D39N, Q44E, S99G, G189S, N190S, M217L, T269S counted along it
T3 sequence (P61769 21-119 limits assumed, chain 2 of 2): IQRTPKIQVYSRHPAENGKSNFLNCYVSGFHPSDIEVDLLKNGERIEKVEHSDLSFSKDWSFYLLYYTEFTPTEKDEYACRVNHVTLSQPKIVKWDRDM

B1: AB0089 TriNKET (bispecific antibody, human IgG1, kappa)
chain: QLQLQESGPGLVKPSETLSLTCTVSGFSLTNYGLHWIRQPPGKCLEWIGVIWVGGATDYNPSLKSRVTISVDTSKNQFSLKLSSVQAADTAVYYCAKGDYGDTLDYWGQGTLVTVSSGGGGSGGGGSGGGGSGGGGSDIQMTQSPSSLSASVGDRVTITCHASQNINFWLSWYQQKPGKAPKLLIYEASNLHTGVPSRFSGSGSGTDFTLTISSLQPEDFATYYCQQSHSYPLTFGCGTKLEIKGSDKTHTCPPCPAPELLGGPSVFLFPPKPKDTLMISRTPEVTCVVVDVSHEDPEVKFNWYVDGVEVHNAKTKPREEQYNSTYRVVSVLTVLHQDWLNGKEYKCKVSNKALPAPIEKTISKAKGQPREPRVYTLPPCRDELTKNQVSLTCLVKGFYPSDIAVEWESNGQPENNYKTTPPVLVSDGSFTLYSKLTVDKSRWQQGNVFSCSVMHEALHNHYTQKSLSLSPG
heavy: EVQLVESGGGLVKPGGSLRLSCAASGFTFSSYSMNWVRQAPGKGLEWVSSISSSSSYIYYADSVKGRFTISRDNAKNSLYLQMNSLRAEDTAVYYCARGAPIGAAAGWFDPWGQGTLVTVSSASTKGPSVFPLAPSSKSTSGGTAALGCLVKDYFPEPVTVSWNSGALTSGVHTFPAVLQSSGLYSLSSVVTVPSSSLGTQTYICNVNHKPSNTKVDKKVEPKSCDKTHTCPPCPAPELLGGPSVFLFPPKPKDTLMISRTPEVTCVVVDVSHEDPEVKFNWYVDGVEVHNAKTKPREEQYNSTYRVVSVLTVLHQDWLNGKEYKCKVSNKALPAPIEKTISKAKGQPREPQVCTLPPSRDELTENQVSLTCLVKGFYPSDIAVEWESNGQPENNYKTTPPVLDSDGSFFLYSWLTVDKSRWQQGNVFSCSVMHEALHNHYTQKSLSLSPG
light: DIQMTQSPSSVSASVGDRVTITCRASQGISSWLAWYQQKPGKAPKLLIYAASSLQSGVPSRFSGSGSGTDFTLTISSLQPEDFATYYCQQGVSFPRTFGGGTKVEIKRTVAAPSVFIFPPSDEQLKSGTASVVCLLNNFYPREAKVQWKVDNALQSGNSQESVTEQDSKDSTYSLSSTLTLSKADYEKHKVYACEVTHQGLSSPVTKSFNRGEC
notes: F3' format heterodimer of three chains; human IgG1 Fc with EW-RVT and Y349C/S354C mutations; also called AB0089 Lot AB0089-002; CLEC12A TriNKET AB0089
Work on B1 yielded a kon [1] of 8.87e+06 M⁻¹ s⁻¹ and a kon [2] of 8.62e+06 M⁻¹ s⁻¹.

B2: AB0192 TriNKET (other)
chain: EVQLVESGGGVVQPGGSLRLSCAASGFTFNAFGMHWVRQAPGKCLEWVAFISSGSTSIYYANTVKGRFTISRDNSKNTLYLQMNSLRAEDTAVYYCARDGYPTGGAMDYWGQGTSVTVSSGGGGSGGGGSGGGGSGGGGSDIQMTQSPSSLSASVGDRVTITCKASQDIYNYLSWFQQKPGKAPKPLIYRANILVSGVPSRFSGSGSGQDYTFTISSLQPEDIATYYCLQFDAFPFTFGCGTKLEIKGSDKTHTCPPCPAPELLGGPSVFLFPPKPKDTLMISRTPEVTCVVVDVSHEDPEVKFNWYVDGVEVHNAKTKPREEQYNSTYRVVSVLTVLHQDWLNGKEYKCKVSNKALPAPIEKTISKAKGQPREPRVYTLPPCRDELTKNQVSLTCLVKGFYPSDIAVEWESNGQPENNYKTTPPVLVSDGSFTLYSKLTVDKSRWQQGNVFSCSVMHEALHNHYTQKSLSLSPG
heavy: EVQLVESGGGLVKPGGSLRLSCAASGFTFSSYSMNWVRQAPGKGLEWVSSISSSSSYIYYADSVKGRFTISRDNAKNSLYLQMNSLRAEDTAVYYCARGAPIGAAAGWFDPWGQGTLVTVSSASTKGPSVFPLAPSSKSTSGGTAALGCLVKDYFPEPVTVSWNSGALTSGVHTFPAVLQSSGLYSLSSVVTVPSSSLGTQTYICNVNHKPSNTKVDKKVEPKSCDKTHTCPPCPAPELLGGPSVFLFPPKPKDTLMISRTPEVTCVVVDVSHEDPEVKFNWYVDGVEVHNAKTKPREEQYNSTYRVVSVLTVLHQDWLNGKEYKCKVSNKALPAPIEKTISKAKGQPREPQVCTLPPSRDELTENQVSLTCLVKGFYPSDIAVEWESNGQPENNYKTTPPVLDSDGSFFLYSWLTVDKSRWQQGNVFSCSVMHEALHNHYTQKSLSLSPG
light: DIQMTQSPSSVSASVGDRVTITCRASQGISSWLAWYQQKPGKAPKLLIYAASSLQSGVPSRFSGSGSGTDFTLTISSLQPEDFATYYCQQGVSFPRTFGGGTKVEIKRTVAAPSVFIFPPSDEQLKSGTASVVCLLNNFYPREAKVQWKVDNALQSGNSQESVTEQDSKDSTYSLSSTLTLSKADYEKHKVYACEVTHQGLSSPVTKSFNRGEC
notes: the condition stands under assay; also called AB0192 Lot AB0192-005
In the case of B2, the Kd (Human CD16b) is reported as 6800 nM and 6000 nM and 5300 nM, the Kd (Human FcRn) is reported as 1500 nM and 1300 nM and the Kd (Cynomolgus FcRn) is reported as 1500 nM and 1400 nM and 1200 nM. For the same binder, the Kd (Human CD16a V158 [3]) was 178 nM, the Kd (Human CLEC12A-His) was 1.81 nM and the koff (Human CLEC12A-His) was 0.0014 s⁻¹. The kon (Human CLEC12A-His) was 776000 M⁻¹ s⁻¹, the Kd (mFc-hNKG2D) was 588 nM and the koff (mFc-hNKG2D) was 0.122 s⁻¹. It also gave a kon (mFc-hNKG2D) of 208000 M⁻¹ s⁻¹, a Kd (Human CD16a V158 [4]) of 171 nM and a koff (Human CD16a V158 [4]) of 0.0199 s⁻¹. It also gave a kon (Human CD16a V158 [4]) of 117000 M⁻¹ s⁻¹.

B3: F3'-1602 TriNKET (other)
chain: QLQLQESGPGLVKPSETLSLTCTVSGFSLTNYGLHWIRQPPGKCLEWIGVIWSGGKTDYNPSLKSRVTISKDTSKNQFSLKLSSVQAADTAVYYCAKYDYDDSLDYWGQGTLVTVSSGGGGSGGGGSGGGGSGGGGSDIQMTQSPSSLSASVGDRVTITCHASQNINFWLSWYQQKPGKAPKLLIYEASNLHTGVPSRFSGSGSGTRFTLTISSLQPEDIATYYCQQSHSYPLTFGCGTKLEIKGSDKTHTCPPCPAPELLGGPSVFLFPPKPKDTLMISRTPEVTCVVVDVSHEDPEVKFNWYVDGVEVHNAKTKPREEQYNSTYRVVSVLTVLHQDWLNGKEYKCKVSNKALPAPIEKTISKAKGQPREPRVYTLPPCRDELTKNQVSLTCLVKGFYPSDIAVEWESNGQPENNYKTTPPVLVSDGSFTLYSKLTVDKSRWQQGNVFSCSVMHEALHNHYTQKSLSLSPG
heavy: EVQLVESGGGLVKPGGSLRLSCAASGFTFSSYSMNWVRQAPGKGLEWVSSISSSSSYIYYADSVKGRFTISRDNAKNSLYLQMNSLRAEDTAVYYCARGAPIGAAAGWFDPWGQGTLVTVSSASTKGPSVFPLAPSSKSTSGGTAALGCLVKDYFPEPVTVSWNSGALTSGVHTFPAVLQSSGLYSLSSVVTVPSSSLGTQTYICNVNHKPSNTKVDKKVEPKSCDKTHTCPPCPAPELLGGPSVFLFPPKPKDTLMISRTPEVTCVVVDVSHEDPEVKFNWYVDGVEVHNAKTKPREEQYNSTYRVVSVLTVLHQDWLNGKEYKCKVSNKALPAPIEKTISKAKGQPREPQVCTLPPSRDELTENQVSLTCLVKGFYPSDIAVEWESNGQPENNYKTTPPVLDSDGSFFLYSWLTVDKSRWQQGNVFSCSVMHEALHNHYTQKSLSLSPG
light: DIQMTQSPSSVSASVGDRVTITCRASQGISSWLAWYQQKPGKAPKLLIYAASSLQSGVPSRFSGSGSGTDFTLTISSLQPEDFATYYCQQGVSFPRTFGGGTKVEIKRTVAAPSVFIFPPSDEQLKSGTASVVCLLNNFYPREAKVQWKVDNALQSGNSQESVTEQDSKDSTYSLSSTLTLSKADYEKHKVYACEVTHQGLSSPVTKSFNRGEC
notes: CLEC12A scFv-Fc, NKG2D A49MI Fab-Fc, human IgG1 Fc; also called AB0237
Work on B3 yielded a Kd (recombinant human CD32b) of 6600 nM.
